In PMC5240567, “New Insights into Cooperative Binding of Homeodomain Transcription Factors PREP1 and PBX1 to DNA”:

Tests used:
PREP1hd [1] = biological target: T1, PREP1hd (UniProt P55347); experiment: fluorescence polarization; settings: FP and EMSA: 20 mM Na/K phosphate pH 7.2, 150 mM NaCl, 5% glycerol, 1 mM TCEP, room temperature (FP 9 nM DNA, 30 min; EMSA gel run at 4 C in 0.5x TBE); NMR: …
T1 sequence: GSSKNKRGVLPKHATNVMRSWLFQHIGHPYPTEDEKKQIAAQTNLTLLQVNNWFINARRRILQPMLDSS

PREP1hd-N = biological target: T2, PREP1hd-N (UniProt P55347 240-325); experiment: fluorescence polarization; FP and EMSA: 20 mM Na/K phosphate pH 7.2, 150 mM NaCl, 5% glycerol, 1 mM TCEP, room temperature (FP 9 nM DNA, 30 min; EMSA gel run at 4 C in 0.5x TBE); NMR: 20; settings: protein: recombinant; tags: GST cleaved (pGEX-6P); label: 5' 6-FAM (FP); unlabeled in EMSA and NMR
T2 sequence: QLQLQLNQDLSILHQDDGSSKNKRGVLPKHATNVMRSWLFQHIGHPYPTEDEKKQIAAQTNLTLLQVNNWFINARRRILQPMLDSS

PREP1hd-C = biological target: T3, PREP1hd-C (UniProt P55347 257-344); experiment: as above; settings: protein: recombinant; tags: GST cleaved (pGEX-6P); label: 5' 6-FAM (FP); unlabeled in EMSA and NMR
T3 sequence: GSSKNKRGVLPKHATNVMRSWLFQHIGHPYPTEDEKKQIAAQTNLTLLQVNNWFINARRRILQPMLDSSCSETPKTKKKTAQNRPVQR

HOXB1HD [2] = biological target: T4, HOXB1HD (UniProt P14653 171-266); experiment: as above; settings: protein: recombinant, tags: GST cleaved (pGEX-6P), label: 5' 6-FAM (FP)
PREP1hd [3] = biological target: T5, PREP1hd (UniProt P55347 257-325); experiment: as above; settings: protein: recombinant, tags: GST cleaved (pGEX-6P), label: 5' 6-FAM (FP)
T5 sequence: T1 sequence

PREP1HD [4] = biological target: T6, PREP1HD (UniProt P55347 240-344); experiment: as above; settings: protein: recombinant, tags: GST cleaved (pGEX-6P), label: 5' 6-FAM (FP)
T6 sequence: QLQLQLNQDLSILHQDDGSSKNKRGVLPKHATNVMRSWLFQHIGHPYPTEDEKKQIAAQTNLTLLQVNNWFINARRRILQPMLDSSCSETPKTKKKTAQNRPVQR

PBX1HD = biological target: T7, PBX1HD (UniProt P40424 227-317); experiment: as above; settings: protein: recombinant, tags: GST cleaved (pGEX-6P)
T7 sequence: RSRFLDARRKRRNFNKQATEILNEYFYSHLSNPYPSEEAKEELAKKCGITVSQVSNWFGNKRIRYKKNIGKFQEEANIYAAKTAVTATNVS

HOXB1HD [5] = biological target: T4, HOXB1HD; experiment: EMSA; FP and EMSA: 20 mM Na/K phosphate pH 7.2, 150 mM NaCl, 5% glycerol, 1 mM TCEP, room temperature (FP 9 nM DNA, 30 min; EMSA gel run at 4 C in 0.5x TBE); NMR: 20; settings: protein: recombinant; tags: GST cleaved (pGEX-6P); label: 5' 6-FAM (FP); unlabeled in EMSA
[6] = label: 5' 6-FAM (FP), unlabeled in EMSA

T4 sequence (P14653 171-266): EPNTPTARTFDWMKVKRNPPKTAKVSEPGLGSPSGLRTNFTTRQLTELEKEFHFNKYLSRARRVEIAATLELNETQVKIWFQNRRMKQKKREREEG

With “AGGATAACCTGGGATT (double strand) [Control]” the Kd (PREP1hd [1]) was 836 µM.

B1: PMH (dsDNA)
DNA 1: AGTGATTGACAGATTC
DNA 2: GAATCTGTCAATCACT
B1 was tested, and the Kd (PREP1hd-N) was 23.7 ± 2.6 µM, the Kd (PREP1hd-C) was 15.5 ± 0.6 µM and the Kd (HOXB1HD [2]; unlabeled in EMSA and NMR) was 2.7 ± 0.2 µM. The Kd (PREP1hd [3]; unlabeled in EMSA and NMR) was 31.8 ± 1.5 µM, the Kd (PREP1HD [4]; unlabeled in EMSA and NMR) was 15.4 ± 1 µM and the Kd (PBX1HD; label: 5' 6-FAM (FP), unlabeled in EMSA and NMR) was 0.36 ± 0.1 µM.

B2: PH (dsDNA)
DNA 1: AGAGTGATTGATAAGG
DNA 2: CCTTATCAATCACTCT
Molecule B2 has a Kd (HOXB1HD [2]; unlabeled in EMSA) of 6.2 ± 0.1 µM, a Kd (PREP1hd [3]; unlabeled in EMSA) of 51.4 ± 2.5 µM and a Kd (PREP1HD [4]; unlabeled in EMSA) of 23.5 ± 2 µM. For the same molecule, the Kd (PBX1HD; [6]) was 2.1 ± 0.3 µM.

B3: PH* (dsDNA)
DNA 1: AGAGTGATTGATCGGC
DNA 2: GCCGATCAATCACTCT
For B3, the Kd (PBX1HD; label: 5' 6-FAM) was 3.3 ± 0.5 µM.

B4: Control (dsDNA)
DNA 1: AGGATAACCTGGGATT
DNA 2: AATCCCAGGTTATCCT
For B4, the Kd (PREP1HD [4]; unlabeled in EMSA) was 159 ± 5.2 µM, the Kd (PBX1HD; [6]) was 2.5 ± 0.4 µM and the binding result (HOXB1HD [5]) was “binds”.

B5: Control* (dsDNA)
DNA 1: CGTCAGCCCTACGGGA
DNA 2: TCCCGTAGGGCTGACG
With B5 the Kd (PBX1HD; label: 5' 6-FAM) was 2.1 ± 0.1 µM.
